US9340584 (dated 2016)

The binders below were run against human serum albumin (human, UniProt P02768 25-609) (assay: SPR).

Row | Binder | Kd [nM]
1 | RLuc-H6 (other) MVKQIESKTAFQEALDAAGDKLVVVDFSATDRKPWKTRGWSGPSKMIKPFFHSLSEKYSNVIFLEVDVDDAQDVASEAFGLFSFPLLPTFQFFKKGQKVGEFSGANKEKLEATINELV | 2460
2 | mutant TRX protein E2 (HSA binder, purified) (designed binder) MVKQIESKTAFQEALDAAGDKLVVVDFSATKNEKRDVAEWSGPSKMIKPFFHSLSEKYSNVIFLEVDVDDAQDVASEAFGFFGFPVLPTFQFFKKGQKVGEFSGANKEKLEATINELV | 830
3 | RLuc-F3 (other) MVKQIESKTAFQEALDAAGDKLVVVDFSATGGTPGRRNRWSGPSKMIKPFFHSLSEKYSNVIFLEVDVDDAQDVASEAFCEFCFPFLPTFQFFKKGQKVGEFSGANKEKLEATINELV | 640

The remaining binders from weak to strong by Kd, led by results:

Row | Kd [nM] | Binder
4 | 1300 | RLuc-E2 (other) MVKQIESKTAFQEALDAAGDKLVVVDFSATKNEKRDVAEWSGPSKMIKPFFHSLSEKYSNVIFLEVDVDDAQDVASEAFGFFGFPVLPTFQFFKKGQKVGEFSGANKEKLEATINELV
5 | 870 | mutant TRX protein H6 (HSA binder, purified) (designed binder) MVKQIESKTAFQEALDAAGDKLVVVDFSATDRKPWKTRGWSGPSKMIKPFFHSLSEKYSNVIFLEVDVDDAQDVASEAFGLFSFPLLPTFQFFKKGQKVGEFSGANKEKLEATINELV
6 | 520 | mutant TRX protein F3 (HSA binder, purified) (designed binder) MVKQIESKTAFQEALDAAGDKLVVVDFSATGGTPGRRNRWSGPSKMIKPFFHSLSEKYSNVIFLEVDVDDAQDVASEAFCEFCFPFLPTFQFFKKGQKVGEFSGANKEKLEATINELV
